3 substances from article PMC2800194 can be followed below.

Common to all, as to experiment: fluorescence anisotropy
Holding throughout (conditions): Anisotropy: 45 mM Tris pH 8.0, 1 mM CoCl2, 1 mM 2-oxoglutarate, 1 nM DNA, 25 °C, added salt not stated
(In general: Fluorescence polarisation rises when a labelled molecule tumbles more slowly, as on binding a larger partner.)

The subject of data set [1] is AlkB Y76A (Escherichia coli).
The subject of data set [2] is AlkB W69A (Escherichia coli).
Data set [3] has as its system AlkB wt (Escherichia coli).
In data set [4] the test system is AlkB T51A (Escherichia coli).
Data set [5] has as its system AlkB R161A (Escherichia coli).
Data set [6] has as its target T1, AlkB D135A D135A (Escherichia coli) (UniProt P05050).
T1 sequence: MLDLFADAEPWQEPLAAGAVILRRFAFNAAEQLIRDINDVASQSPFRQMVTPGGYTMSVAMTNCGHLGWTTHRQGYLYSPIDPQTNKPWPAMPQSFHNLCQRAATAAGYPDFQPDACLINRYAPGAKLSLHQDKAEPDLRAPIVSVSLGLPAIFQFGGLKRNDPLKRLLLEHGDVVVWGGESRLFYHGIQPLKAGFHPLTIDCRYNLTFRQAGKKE

Where [7] appears, read: 1,N6-ethenoadenine (position not given).
Setting [8] is: one 1-methyladenine (position not given).

As for 30-mer εA, the equilibrium dissociation constant (Kd) – broadly, the equilibrium constant for the complex coming apart – in data set [1] (setting [7]) was 22 µM; in data set [2] (setting [7]), 7.8 µM; in data set [3] (setting [7]), 1.2 µM; in data set [4] (setting [7]), 2.7 µM; in data set [5] (setting [7]) it was 8 µM; in data set [6] (setting [7]), 0.127 µM.

For 30-mer undamaged, the Kd in data set [1] (1 mM Co2+, 1 mM 2-OG) amounted to 38 µM; in data set [2] it was 35 µM; in data set [3], 16 µM; in data set [4], 51 µM; in data set [5], 20 µM; in data set [6], 4.9 µM.

For the substance 30-mer 1-meA, the Kd in data set [1] (setting [8]) was found to be 11 µM; in data set [2] (setting [8]), 5.2 µM; in data set [3] (setting [8]) it was 2 µM; in data set [4] (setting [8]), 1.5 µM; in data set [5] (setting [8]), 9.6 µM; in data set [6] (setting [8]), 0.316 µM.
